{
  "source": "IntAct's records for PubMed 24469404",
  "parents": {"B1": {"name": "TERF1-interacting nuclear factor 2 (Mus musculus), Q9QXG9 (parent)", "chain": "MAPPPGVGPASLRFAAAASWLVVRRRRVEHFPKVVEFLQSLRAAAPGLVCYRHHERLCMSLKAKVVVELILQARPWDQVLNALKHHFPAESRTTKEDRKLLEARENFCLLVKHLSEDPPSSLQELEQDYGESFLVAMEKLLFEYLCQLEKALPPVRAQELQDALSWSQPGSFITSSVALHQYGMDMGWTFPESSTSGSGNLIEPMEESPHQQTRPAFHSPLPKAKLGPHQPASLEHPEHLAGHRFNLAPLGKRKSRSHWTSAKACHKERPTVMLLPFRNMGLPAQDLSNPKSREEPGAASAASVGTEPVCTEEAKTPSRPLGKRALEETPPDSPAASRRTV", "partner": "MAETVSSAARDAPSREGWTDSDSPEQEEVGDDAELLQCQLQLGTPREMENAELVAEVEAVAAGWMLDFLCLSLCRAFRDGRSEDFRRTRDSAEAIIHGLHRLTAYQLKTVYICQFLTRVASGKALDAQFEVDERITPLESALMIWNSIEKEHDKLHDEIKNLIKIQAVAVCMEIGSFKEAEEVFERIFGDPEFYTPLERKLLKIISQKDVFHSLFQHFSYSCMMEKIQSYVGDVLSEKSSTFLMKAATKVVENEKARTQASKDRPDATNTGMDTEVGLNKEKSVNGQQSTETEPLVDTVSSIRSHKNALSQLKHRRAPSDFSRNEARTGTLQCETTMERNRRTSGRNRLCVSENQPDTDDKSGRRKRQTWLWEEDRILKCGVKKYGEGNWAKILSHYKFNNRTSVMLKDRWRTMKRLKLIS"}},
  "data": [
    {"variants_of": "B1", "details": "with terf1_mouse Terf1, P70371", "values": [
      {"variant": "MAPPPGVGPASLRFAAAASWLVVRRRRVEHFPKVVEFLQSLRAAAPGLVCYRHHERLCMSLKAKVVVELILQARPWDQVLNALKHHFPAESRTTKEDRKLLEARENFCLLVKHLSEDPPSSLQELEQDYGESFLVAMEKLLFEYLCQLEKALPPVRAQELQDALSWSQPGSFITSSVALHQYGMDMGWTFPESSTSGSGNLIEPMEESPHQQTRPAFHSPLPKAKLGPHQPASLEHPEHLAGHRFNEAPLGKRKSRSHWTSAKACHKERPTVMLLPFRNMGLPAQDLSNPKSREEPGAASAASVGTEPVCTEEAKTPSRPLGKRALEETPPDSPAASRRTV", "note": "[L247E]", "effect of a mutation on the interaction": "disrupting interaction"}
    ]}
  ]
}
